Key:
the 23-mer peptide = test: BIAcore; format not described
[1] = target: human CD31 (PECAM-1) (human) (UniProt P16284); test: 10-colour flow cytometry on human peripheral blood leukocytes of a healthy donor, WM59-PE against PECAM 1.2-FITC; gate CD20 = B lymphocytes
[2] = target: human CD31 (PECAM-1) (human) (UniProt P16284); test: 10-colour flow cytometry on human peripheral blood leukocytes of a healthy donor, WM59-PE against PECAM 1.2-FITC; gate 3 (CD4) = naive CD4+ T cells
[3] = target: human CD31 (PECAM-1) (human) (UniProt P16284); test: 10-colour flow cytometry on human peripheral blood leukocytes of a healthy donor, WM59-PE against PECAM 1.2-FITC; gate 3 (CD8) = naive CD8+ T cells
[4] = target: human CD31 (PECAM-1) (human) (UniProt P16284); test: 10-colour flow cytometry on human peripheral blood leukocytes of a healthy donor, WM59-PE against PECAM 1.2-FITC; gate 2 (CD8) = memory CD8+ T cells
[5] = target: human CD31 (PECAM-1) (human) (UniProt P16284); test: 10-colour flow cytometry on human peripheral blood leukocytes of a healthy donor, WM59-PE against PECAM 1.2-FITC; gate 1 (CD4) = activated CD4+ T cells
[6] = target: CD31shed (residual cell-bound human CD31 after shedding between the 5th and 6th extracellular Ig-like domains) (human) (UniProt P16284); test: 10-colour flow cytometry on human peripheral blood leukocytes of a healthy donor, WM59-PE against PECAM 1.2-FITC; gate CD20 = B lymphocytes
[7] = target: CD31shed (residual cell-bound human CD31 after shedding between the 5th and 6th extracellular Ig-like domains) (human) (UniProt P16284); test: 10-colour flow cytometry on human peripheral blood leukocytes of a healthy donor, WM59-PE against PECAM 1.2-FITC; gate 3 (CD4) = naive CD4+ T cells
[8] = target: CD31shed (residual cell-bound human CD31 after shedding between the 5th and 6th extracellular Ig-like domains) (human) (UniProt P16284); test: 10-colour flow cytometry on human peripheral blood leukocytes of a healthy donor, WM59-PE against PECAM 1.2-FITC; gate 3 (CD8) = naive CD8+ T cells
[9] = target: CD31shed (residual cell-bound human CD31 after shedding between the 5th and 6th extracellular Ig-like domains) (human) (UniProt P16284); test: 10-colour flow cytometry on human peripheral blood leukocytes of a healthy donor, WM59-PE against PECAM 1.2-FITC; gate 2 (CD8) = memory CD8+ T cells
[10] = target: CD31shed (residual cell-bound human CD31 after shedding between the 5th and 6th extracellular Ig-like domains) (human) (UniProt P16284); test: 10-colour flow cytometry on human peripheral blood leukocytes of a healthy donor, WM59-PE against PECAM 1.2-FITC; gate 1 (CD4) = activated CD4+ T cells
[11] = target: the molecule itself; test: SPR (BIAcore 2000), peptide coated on CM5 chip, same peptide injected at 12.5-100 µM
Procedure: Plasmon Surface Resonance. Homophilic binding association and dissociation constants were calculated by surface plasmon resonance (BIAcore® 2000, GE). […] Dissociation was monitored for 300 seconds. Association (kon) and dissociation (koff) constants were calculated using the BIAevaluation 3.0 Software (GE).

## alternatively spliced soluble CD31 (receptor)
The 23-mer peptide
  Kd: 17 µM

## anti-CD31 monoclonal antibody clone WM-59
[1]
  percent of gated cells in the upper right quadrant (dom1+/dom6+): 88
[2]
  percent of gated cells in the upper right quadrant (dom1+/dom6+): 71.9
[3]
  percent of gated cells in the upper right quadrant (dom1+/dom6+): 76.5
[4]
  percent of gated cells in the upper right quadrant (dom1+/dom6+): 70.3
[5]
  percent of gated cells in the upper right quadrant (dom1+/dom6+): 9.4

## anti-CD31 monoclonal antibody clone PECAM 1.2
[6]
  percent of gated cells in the lower right quadrant (dom1-/dom6+): 12
[7]
  percent of gated cells in the lower right quadrant (dom1-/dom6+): 28.1
[8]
  percent of gated cells in the lower right quadrant (dom1-/dom6+): 23.5
[9]
  percent of gated cells in the lower right quadrant (dom1-/dom6+): 29.7
[10]
  percent of gated cells in the lower right quadrant (dom1-/dom6+): 90.6

B1: mouse CD31 peptide 551-574 (peptide)
peptide: SSMRTSPRSSTLAVRVFLAPWKK
notes: Synthetic peptide, juxta-membrane 23 amino acids of the mouse CD31 ectodomain; In the SPR assay it was both coated on the CM5 chip and injected as analyte
[11]
  Kd: 17.8 µM
  koff: 0.00158 s⁻¹
  kon: 134 M⁻¹ s⁻¹

— patent US20190177396A1 (INSERM INSTITUTE NATIONAL DE LA SANTE ET DE LA RECHERCHE …, published 2019)
